Where a SMILES comes first, the peptide text is derived from it. The star is where a group is joined. Cbz = O=C(OCc1ccccc1)*
How the values were obtained:
Assay type in all cases: cell-based
[1] = test system: PINK1; experiment: PINK1 accumulation by fractionation and immunoblotting
Excerpt: (§1) For PINK1 experiments, cells were fractionated using the Mitochondria Isolation Kit (Pierce), according to manufacturer's specifications with slight modifications. To isolate integral membrane proteins, membrane fractions obtained as above were carbonate extracted with 0.1M Na2CO3 fresh cold buffer and membranes were pelleted, as described in the supplemental methods. For Parkin experiments, cells were fractionated as described previously, with minor modifications described in the supplemental methods (Narendra (2008) J Cell Biol 183: 795-803). The following primary antibodies were used: anti-Parkin (PRK8) monoclonal (Santa Cruz), anti-Tom20 polyclonal (Santa Cruz), anti-cytochrome c monoclonal (BD Biosciences), anti-PINK1 polyclonal (Novus Biologicals), anti-VDAC monoclonal (Calbiochem), anti-GAPDH polyclonal (Sigma-Aldrich), anti-Tubulin monoclonal (Sigma-Aldrich), anti-V5 monoclonal (Invitrogen), anti-GFP polyclonal (Invitrogen).
as §1, with “with slight modifications described in the supplemental methods. To isolate” for “with slight modifications. To isolate”, “minor modifications detailed in the” for “minor modifications described in the”, “supplemental methods (Narendra (2008) J Cell Biol 183: 795-803). The protease protection assay was performed as described previously (Chen (2005) J Biol Chem 280: 26185-26192). Cells were fixed and immunostained as described previously (Narendra (2008)” for “supplemental methods (Narendra (2008)”, “anti-GFP polyclonal (Invitrogen), anti-TIM23 monoclonal (BD Biosciences), and anti-Hsp60 monoclonal (Stressgen).” for “anti-GFP polyclonal (Invitrogen).”

[2] = test system: HeLa cells; experiment: Mitochondrial translocation of Parkin by imaging (Examples 4 and 5); details: HeLa stably expressing YFP-Parkin, MG132 for 8 hrs
Description: Cells were cultured in borosilicated chamber slides for imaging, 6-well plates for whole cell lysates, and 100 or 150 mm culture dish for subcellular fractionation. One day after seeding, cells were transfected with indicated constructs using Fugene HD (Roche) or Lipofectamine 2000 (Invitrogen) according to the manufacturer's guidelines.
For immunocytochemistry, cultured cells in borosilicated chamber slides were fixed with 4% paraformaldehyde in PBS (USB) and permeabilized with the indicated detergent. After 30 min blocking with 10% BSA in PBS, cells were stained with the following primary antibodies: antiTom20 polyclonal antibody (Santa Cruz Biotechnology, Inc.) and anti-cytochrome C monoclonal antibody (BD), or anti-Tom20 monoclonal antibody (BD) and anti-GFP polyclonal antibody (Invitrogen) and then with the following secondary antibodies: goat anti-mouse/rabbit IgG antibody conjugated with Alexa Fluor 594/647, respectively. In case of live cell imaging, cells were pulsed with 600 nM TMRE for 5 min to evaluate mitochondrial membrane potential or 10 nM Mitotracker Red for 30 min to see the mitochondrial morphology. Cells were imaged using an inverted microscope (LSM510 Meta; Carl Zeiss) with 63×/1.4 oil DIC Plan Apo objective. Image contrast and brightness were adjusted in LSM image browser (Carl Zeiss).

[3] = test system: HeLa cells; experiment: Parkin colocalization with mitochondria scored by confocal microscopy; details: for YFP-Parkin (wild type or indicated mutant) colocalization with mitochondria, % of cells: HeLa cells, 1 hour
Description: (§2) Cultured cells seeded in borosilicate chamber slides (Thermo Fisher Scientific) were transfected or cotransfected with YFP-Parkin, ECFP-Parkin, mCherry-Parkin, DsRed-Mito (Clontech Laboratories, Inc.), pcDNA3.1 (Invitrogen), vMIA, and/or Drp1K38A constructs using Fugene 6 (Roche). Parkin-myc was a gift from M. Cookson (National Institutes of Health, Bethesda, Md.). Cells were fixed 12-24 hours after transfection with 4% paraformaldehyde in PBS. Cells were stained with following primary antibodies: mouse monoclonal cytochrome c (BD), rabbit polyclonal Tom20 (Santa Cruz Biotechnology, Inc.), mouse monoclonal Parkin PRK8 (Santa Cruz Biotechnology, Inc.), rabbit polyclonal PMP70 (Invitrogen), and/or mouse monoclonal TRAP1 (Abcam); and with the following secondary antibodies: mouse and/or rabbit Alexa 488, 594, and 633 (Invitrogen). For assessment of mitochondrial membrane potential, cells were pulsed with 50 nM Mito-Tracker red (Invitrogen) for 15 min, washed, and incubated for an additional 10 minutes before fixation or imaging. For assessment of cell metabolic potential, cell nuclei were stained with Hoechst 33342 (Invitrogen).
Fixed cells and live cells in the FLIP assay were imaged using an inverted microscope (LSM510 Meta; Carl Zeiss, Inc.) with a 63×/1.4 oil DIC Plan Apo objective at 25° C. and 37° C., respectively. For the FLIP assay, a bleach region of interest (ROI) occupying approximately one eighth of the cell was positioned over a relatively mitochondria-free portion of the cytosol. Cells were alternately bleached (488 nm using a 30-mW argon laser at 75% power and 100% transmission for 150 iterations) and imaged (488 nm at 75% power and 2% transmission) for 10 minutes (—60 cycles over the length of the experiment). Two channel prebleach and postbleach images were obtained with 488 and 594 lasers to assess the position of mitochondria before and after bleaching. Circular ROIs with diameters of ˜1 and 5 μm, respectively, were placed over the mitochondria and cytosol of the target cell, and an ROI of 10 μm was placed over the control cell. Imaging of YFP-Parkin translocation in live HeLa cells was performed on a live cell imager system (UltraView LCI; PerkinElmer) at 35° C. with a 100×/1.45 α-Plan-Fluor objective.
Image contrast and brightness were adjusted in Photoshop (Adobe). Colocalization was assessed with line scans using MetaMorph (MDS Analytical Technologies). For analysis of mitochondrial membrane potential in cells, mitochondrial voxels in each image (the cytochrome c channel threshold was ≧400 au) were segregated into Parkin-positive (the YFP-Parkin channel threshold was ≧1,100 au) or Parkin-negative subsets, and MitoTracker intensity for each voxel was measured using Volocity software (Improvision). For each cell, the mean MitoTracker intensity per voxel was calculated for the Parkin-positive and Parkin-negative subsets. The difference in mean Mito-Tracker intensity between the Parkin-positive and Parkin-negative subsets was calculated using a paired t test. Western blotting HeLa cells stably expressing YFP-Parkin, HEK293 cells, and rat cortical neurons 2 days in vitro were harvested and fractionated as described previously (Karbowski et al., J. Cell Biol. 178: 71-84, 2007). Samples were run on SDS-PAGE and immunoblotted with the following antibodies: polyclonal rabbit anti-GFP (Invitrogen), mouse monoclonal anti-Parkin (PRK8), and mouse monoclonal anti-Porin 31HL (EMD).
(§3) Confocal microscopy of fixed samples, scoring of Parkin recruitment and Parkininduced mitophagy, and live cell imaging were performed as described previously (Narendra (2008) J Cell Biol 183: 795-803). Experiments in Mfn1/2 null cells were performed as described previously with minor modifications.
Confocal microscopy of fixed samples, scoring of Parkin recruitment and Parkin-induced mitophagy, and live cell imageing were performed as described previously (Narendra (2008) J Cell Biol 183: 795-803). […]

[4] = test system: HeLa cells; experiment: Parkin in mitochondria-rich membrane fraction, immunoblot; details: for translocation of YFP-Parkin variant to mitochondria-rich membrane fraction: HeLa, CCCP 1 hr, Western blotting
Excerpt: as §1
as §1, with “with slight modifications described in the supplemental methods. To isolate” for “with slight modifications. To isolate”, “minor modifications detailed in the” for “minor modifications described in the”, “supplemental methods (Narendra (2008) J Cell Biol 183: 795-803). The protease protection assay was performed as described previously (Chen (2005) J Biol Chem 280: 26185-26192). Cells were fixed and immunostained as described previously (Narendra (2008)” for “supplemental methods (Narendra (2008)”, “anti-GFP polyclonal (Invitrogen), anti-TIM23 monoclonal (BD Biosciences), and anti-Hsp60 monoclonal (Stressgen).” for “anti-GFP polyclonal (Invitrogen).”

[5] = test system: HeLa cells; experiment: Parkin-induced mitophagy, loss of mitochondria by immunocytochemistry; details: HeLa expressing YFP-Parkin variant, CCCP 24 hours
Description: as §2, §3
as §3, with “Parkin-induced” for “Parkininduced”, “imageing” for “imaging”, “modifications described in the supplemental methods (Narendra (2008) J Cell Biol 183: 795-803).” for “modifications.”

Q: Which “appearance of short form of PINK1” value ([1]; HeLa treated with vehicle, 50 μM MG132 for final hour) does the source give for `CC(C)C[C@@H](C=O)NC(=O)[C@H](CC(C)C)NC(=O)[C@H](CC(C)C)NC(=O)OCc1ccccc1` [MG132, reference compound] (Cbz-Leu-Leu-Leu-aldehyde) here?
A: ˜52 kDa band appears

Q: And the “mitochondrial translocation of Parkin” value [2]?
A: no mitochondrial translocation of Parkin was detected

Q: What does the source list for `C[C@@H]1C[C@@H]([C@H](O)CC2CC(=O)NC(=O)C2)C(=O)[C@@H](C)C1` [cycloheximide, reference compound]?
A: effect on CCCP-induced Parkin recruitment to mitochondria ([3]; HeLa cells expressing YFP-Parkin, added together with CCCP): blocked; YFP-Parkin colocalization with mitochondria, % of cells ([3]; HeLa, 10 μM CCCP 1 hr+100 μM CHX (30 minutes pretreatment)): 11.3±4.2%; effect on abundance of accumulated full length PINK1 ([1]; HeLa, after 3 hours CCCP, continuous CCCP): little effect; effect on depolarization-induced accumulation of endogenous PINK1 ([1]; HeLa, cycloheximide 90 minutes, CCCP 60 minutes, whole cell lysates and membrane fraction): blocked; effect on YFP-Parkin accumulation in mitochondrial enriched heavy membrane fraction ([4]; HeLa YFP-Parkin, CCCP plus cycloheximide): blocked

B1: R275W: YFP-Parkin mutation in RING1 (protein, UniProt O60260 1-465, looked up, variant R275W)
E3 ubiquitin-protein ligase …: MIVFVRFNSSHGFPVEVDSDTSIFQLKEVVAKRQGVPADQLRVIFAGKELRNDWTVQNCDLDQQSIVHIVQRPWRKGQEMNATGGDDPRNAAGGCEREPQSLTRVDLSSSVLPGDSVGLAVILHTDSRKDSPPAGSPAGRSIYNSFYVYCKGPCQRVQPGKLRVQCSTCRQATLTLTQGPSCWDDVLIPNRMSGECQSPHCPGTSAEFFFKCGAHPTSDKETSVALHLIATNSRNITCITCTDVRSPVLVFQCNSRHVICLDCFHLYCVTRLNDWQFVHDPQLGYSLPCVAGCPNSLIKELHHFRILGEEQYNRYQQYGAEECVLQMGGVLCPRPGCGAGLLPEPDQRKVTCEGGNGLGCGFAFCRECKEAYHEGECSAVFEASGTTTQAYRVDERAAEQARWEAASKETIKKTTKPCPRCHVPVEKNGGCMHMKCPQPQCRLEWCWNCGCEWNRVCMGDHWFDV
modifications: YFP fusion
notes: YFP-Parkin mutation in RING1
Q: Which “YFP-Parkin (wild type or indicated mutant) colocalization with mitochondria, % of cells” value ([3]; 10 μM CCCP) does the source give for B1 here?
A: 81.7±2.1%

Q: What about the “cells with no mitochondria” value [5] of the same molecule?
A: 4.0±4%

Q: And the “translocation of YFP-Parkin variant to mitochondria-rich membrane fraction” value [4]?
A: increases localization in the membrane fraction

B2: R42P: YFP-Parkin with pathogenic UBL domain mutation (protein, UniProt O60260 1-465, looked up, variant R42P)
E3 ubiquitin-protein ligase …: MIVFVRFNSSHGFPVEVDSDTSIFQLKEVVAKRQGVPADQLPVIFAGKELRNDWTVQNCDLDQQSIVHIVQRPWRKGQEMNATGGDDPRNAAGGCEREPQSLTRVDLSSSVLPGDSVGLAVILHTDSRKDSPPAGSPAGRSIYNSFYVYCKGPCQRVQPGKLRVQCSTCRQATLTLTQGPSCWDDVLIPNRMSGECQSPHCPGTSAEFFFKCGAHPTSDKETSVALHLIATNSRNITCITCTDVRSPVLVFQCNSRHVICLDCFHLYCVTRLNDRQFVHDPQLGYSLPCVAGCPNSLIKELHHFRILGEEQYNRYQQYGAEECVLQMGGVLCPRPGCGAGLLPEPDQRKVTCEGGNGLGCGFAFCRECKEAYHEGECSAVFEASGTTTQAYRVDERAAEQARWEAASKETIKKTTKPCPRCHVPVEKNGGCMHMKCPQPQCRLEWCWNCGCEWNRVCMGDHWFDV
modifications: YFP fusion
notes: YFP-Parkin with pathogenic UBL domain mutation
Q: Which “YFP-Parkin (wild type or indicated mutant) colocalization with mitochondria, % of cells” value ([3]; 10 μM CCCP) does the source give for B2 here?
A: 34±5.3%

Q: And the “cells with no mitochondria” value [5]?
A: 22.0±2.0%

Q: What about the “translocation of YFP-Parkin variant to mitochondria-rich membrane fraction” value [4] of the same molecule?
A: No membrane translocation was detectable

B3: C332S: YFP-Parkin engineered mutation in conserved RING cysteine (protein, UniProt O60260 1-465, looked up, variant C332S)
E3 ubiquitin-protein ligase …: MIVFVRFNSSHGFPVEVDSDTSIFQLKEVVAKRQGVPADQLRVIFAGKELRNDWTVQNCDLDQQSIVHIVQRPWRKGQEMNATGGDDPRNAAGGCEREPQSLTRVDLSSSVLPGDSVGLAVILHTDSRKDSPPAGSPAGRSIYNSFYVYCKGPCQRVQPGKLRVQCSTCRQATLTLTQGPSCWDDVLIPNRMSGECQSPHCPGTSAEFFFKCGAHPTSDKETSVALHLIATNSRNITCITCTDVRSPVLVFQCNSRHVICLDCFHLYCVTRLNDRQFVHDPQLGYSLPCVAGCPNSLIKELHHFRILGEEQYNRYQQYGAEECVLQMGGVLSPRPGCGAGLLPEPDQRKVTCEGGNGLGCGFAFCRECKEAYHEGECSAVFEASGTTTQAYRVDERAAEQARWEAASKETIKKTTKPCPRCHVPVEKNGGCMHMKCPQPQCRLEWCWNCGCEWNRVCMGDHWFDV
modifications: YFP fusion
notes: YFP-Parkin engineered mutation in conserved RING cysteine
Q: What does the source list for B3?
A: recruitment of mutant YFP-Parkin to mitochondria ([3]; HeLa, 10 μM CCCP, 24 hours): Mitochondrial recruitment was seen; recruitment of mutant YFP-Parkin to depolarized mitochondria ([3]; HeLa, CCCP 1 hr): completely disrupt; translocation of YFP-Parkin variant to mitochondria-rich membrane fraction [4]: No membrane translocation was detectable

From US20120277286A1, “COMPOSITIONS AND METHODS FOR THE TREATMENT OR PREVENTION OF MITOCHONDRIAL DISEASES” (The Government of the USA, as represented by the Secretary, …, priority 2009, published 2012)
